Values joined by “and” are separate entries in the source; they are usually repeats but may differ in a detail not shown here. Equal entries are not always repeated.

One series has as its target T1, GST-Ste20p FL (Saccharomyces cerevisiae (yeast), UniProt Q03497 1-939).
T1 construct: Purified on glutathione-Sepharose beads; also called GST fusion with full length Ste20p; not shown: glutathione S-transferase (GST), amino-terminal fusion partner
T1 sequence: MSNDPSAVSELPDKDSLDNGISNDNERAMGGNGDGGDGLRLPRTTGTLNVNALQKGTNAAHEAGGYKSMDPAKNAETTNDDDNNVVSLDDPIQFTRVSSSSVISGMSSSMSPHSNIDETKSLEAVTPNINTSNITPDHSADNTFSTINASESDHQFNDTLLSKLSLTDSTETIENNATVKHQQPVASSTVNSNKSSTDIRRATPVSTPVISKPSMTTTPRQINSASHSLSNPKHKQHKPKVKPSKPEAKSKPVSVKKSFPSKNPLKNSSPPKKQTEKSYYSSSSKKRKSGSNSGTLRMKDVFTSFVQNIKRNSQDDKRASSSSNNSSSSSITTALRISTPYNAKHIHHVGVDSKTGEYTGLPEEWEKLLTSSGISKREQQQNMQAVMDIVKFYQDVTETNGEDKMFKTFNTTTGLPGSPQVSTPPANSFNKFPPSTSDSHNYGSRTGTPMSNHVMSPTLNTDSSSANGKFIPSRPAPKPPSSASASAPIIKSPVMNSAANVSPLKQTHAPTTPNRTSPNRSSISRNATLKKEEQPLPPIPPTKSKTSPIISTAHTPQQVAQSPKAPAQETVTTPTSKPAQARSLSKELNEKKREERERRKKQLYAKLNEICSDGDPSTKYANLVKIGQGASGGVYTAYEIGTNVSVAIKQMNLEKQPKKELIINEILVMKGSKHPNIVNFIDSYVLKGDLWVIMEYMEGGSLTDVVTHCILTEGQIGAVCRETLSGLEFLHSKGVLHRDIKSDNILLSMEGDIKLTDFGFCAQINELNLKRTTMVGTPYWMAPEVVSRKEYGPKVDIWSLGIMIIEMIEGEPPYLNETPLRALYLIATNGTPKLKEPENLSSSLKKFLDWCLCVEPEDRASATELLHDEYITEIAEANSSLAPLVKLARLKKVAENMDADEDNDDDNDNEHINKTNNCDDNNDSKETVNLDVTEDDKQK
Nature of the series: GST pull-down of in vitro-translated HA-Ste18p.

Another series addresses T2, Ste4p, P18851.
T2 chain: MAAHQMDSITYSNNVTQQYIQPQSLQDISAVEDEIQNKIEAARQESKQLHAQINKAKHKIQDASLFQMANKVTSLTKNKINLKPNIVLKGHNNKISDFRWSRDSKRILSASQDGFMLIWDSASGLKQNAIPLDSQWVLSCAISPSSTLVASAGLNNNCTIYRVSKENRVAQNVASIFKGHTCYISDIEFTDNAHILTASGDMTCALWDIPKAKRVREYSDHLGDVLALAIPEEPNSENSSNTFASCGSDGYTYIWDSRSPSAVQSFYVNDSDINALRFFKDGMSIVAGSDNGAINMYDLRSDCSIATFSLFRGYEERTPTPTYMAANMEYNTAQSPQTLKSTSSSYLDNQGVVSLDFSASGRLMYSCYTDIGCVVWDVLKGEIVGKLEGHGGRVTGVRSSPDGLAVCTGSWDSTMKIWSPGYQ

In series [1] the target is T3, HA-Ste4p (Saccharomyces cerevisiae (yeast), UniProt P18851 1-423).
T3 sequence (looked up): T2 chain
Nature of the series: co-immunoprecipitation from yeast extracts, densitometry of Western blots, against untreated cells. How it is done:
(A) Time course of pheromone-induced Ste20p binding to HA-Ste4p. HA-Ste4p expressed from the STE4 promoter in cells deleted for STE4 was immunoprecipitated after treatment with […] a-factor. Relative amounts of Ste20p and HA-Ste4p were determined in Western blots (see example in upper and middle panels) and quantified densitometrically (mean values ±SD, n=3) (lower panel). (B) Association of Ste5p with HA-Ste4p expressed from the STE4 promoter in cells deleted for STE4 . HA-Ste4p immunoprecipitates from exponentially growing (−) and pheromone-treated (90 minutes) (+) yeast cells were analyzed with antibodies to Ste5p (upper panel) or HA-Ste4p (lower panel). (C) Overexpression of Ste4p leads to binding to Ste20p. HA-Ste4p was overexpressed from the GAL1 promoter in cells deleted for STE20 (lane 1) or STE4 (lanes 2 and 3). HA-Ste4p expression was suppressed in glucose-containing medium in cells deleted for STE4 (lane 4). Immunoprecipitates obtained with antibodies to Ste20p (lanes 1 and 2) or the HA-epitope (lanes 3 and 4) were analyzed for the presence of Ste20p (upper panel) and HA-Ste4p (lower panel). (D) Coimmunoprecipitation of HA-Ste4p and Ste20p truncation mutants. […] HA-Ste4p (lanes 1 and 2) and Ste20p (lanes 3 and 4) immunoprecipitates were analyzed for the presence of Ste20p (upper panel) and HA-Ste4p (lower panel) by Western blot analyses. […]
A general note: A western blot detects proteins with antibodies after separation by electrophoresis.

For series [2], the target named is T3, HA-Ste4p. Nature of the series: co-immunoprecipitation from yeast extracts, Western blot.

B1: HA-Ste18p (other, Saccharomyces cerevisiae (yeast), UniProt P18852 1-110, looked up, not shown: small tags and cut ends)
chain: MTSVQNSPRLQQPQEQQQQQQQLSLKIKQLKLKRINELNNKLRKELSRERITASNACLTIINYTSNTKDYTLPELWGYPVAGSNHFIEGLKNAQKNSQMSNSNSVCCTLM
notes: In vitro-translated from pBTL65; also called in vitro-translated HA-Ste18p; γ-subunit of the mating response G-protein
For the molecule B1, in the series with GST-Ste20p FL, the binding result is “no binding”.

B2: Ste20p (enzyme)
chain: T1 sequence
notes: Full length Ste20p in yeast cells (endogenous, or from pDH166 / pSTE20-5); also called STE20^WT; wild-type Ste20p
Turning to B2, in the series with Ste4p, P18851, the FUS1::lacZ expression worked out at 274; the FUS1::lacZ expression, Basal came out at 0.1; the FUS1::lacZ expression, Induced was 221; the G1 arrest entry was “+”. In the series with Ste4p, P18851, the Mating efficiencies (%) was 72.7% and 89.8%; the Shmoo formation result is “+”. The “fold increase in the interaction after pheromone treatment” value in the series with HA-Ste4p [1] was approximately 5 fold.

B3: Ste20p^495-877 (enzyme)
chain: MNSAANVSPLKQTHAPTTPNRTSPNRSSISRNATLKKEEQPLPPIPPTKSKTSPIISTAHTPQQVAQSPKAPAQETVTTPTSKPAQARSLSKELNEKKREERERRKKQLYAKLNEICSDGDPSTKYANLVKIGQGASGGVYTAYEIGTNVSVAIKQMNLEKQPKKELIINEILVMKGSKHPNIVNFIDSYVLKGDLWVIMEYMEGGSLTDVVTHCILTEGQIGAVCRETLSGLEFLHSKGVLHRDIKSDNILLSMEGDIKLTDFGFCAQINELNLKRTTMVGTPYWMAPEVVSRKEYGPKVDIWSLGIMIIEMIEGEPPYLNETPLRALYLIATNGTPKLKEPENLSSSLKKFLDWCLCVEPEDRASATELLHDEYITEIAEA
notes: Overexpressed from the GAL1 promoter (pDH171) in cells deleted for STE20; also called STE20^495-877
Consider B3, for which, in the series with Ste4p, P18851, the FUS1::lacZ expression, Basal was less than 0.1; the FUS1::lacZ expression, Induced was less than 0.1; the G1 arrest result is reported as “-”; the Mating efficiencies (%) was found to be 0.02%. In addition, the Shmoo formation result with Ste4p, P18851 is “-”. In addition, the binding result with HA-Ste4p [2] is recorded as “no binding”.

Values taken from patent US20020106690A1 (published 2002).
